Assay results taken from patent EP1841452B1.

Biological target: mouse TNFR1 on L929 cells (mouse)
Experiment: cell-based or functional assay

| Substance | ND50, modified L929 cytotoxicity assay without TNF-α (agonism) [pM] |
| --- | --- |
| anti-TNFR1 antibody AF-425-PB (R&D Systems) | 100 |
| anti-TNFR1 antibody MAB430 (R&D Systems) | 10000 |
